# Results reported in the DeepSol protein solubility set.
# Assay: soluble on expression in E. coli; label from the status in PepcDB or PDB records
row,Sequence,soluble on expression in E. coli
1,MAKNKKLFEYLSQHAETISSTWYETIEETDPNSIYASTDPVVIHNLKSQNLAFNYKINRIFIDDEDVYLPILKEWAFEVTQDQEHLKTPIHYIIREFVRVRDLYVSYVKEFVHLNQNTVKSEEAEDLYHALIKAFDLVIHIFIEEMYKNTSLQLQAQKDMITELSAPVIVLFHSVGLLPLIGDIDTVRAKLIMENTLHQCAKKKVTQLYIDLSGVAVIDTMVAHQLFSLIEALRLIGVSSTLSGIRPEIAQTAVQLGLSFEGISLRSTLASAIASDLKLKKV,not soluble
2,MGSDKIHHHHHHMKASCYGSVGMAAMVAANLGEALKIFEQFIGSRCDAFKPELKQEQNDVYWSIHQPLKSFQLSSDATIFLLLGFIHIAKHLTGLSALGTVQLNMPEPIGFSKIKDKLGVSFLFDQKHNIWIFPKEYLMQPVLTADPMLAPLLKAQCKKDIDKLKLRSGWKAEISQVIKKLLINSQGEILKVKQVAQMMNMSERSLQRYLAIENTSFSALVDLTRKQYAQELLQNSLMSIESVALSLGYADTSHFTRAFKRWMGVTPKYYQTQLKLKNLEIRE,not soluble
3,EPRRPRAGPEELGKILQGVVVVLSGFQNPFRSELRDKALELGAKYRPDWTRDSTHLICAFANTPKYSQVLGLGGRIVRKEWVLDCHRMRRRLPSQRYLMAGPGSSSEEDEASHSGG,soluble
4,TESGTAAQDPEALAAEIGPVKQVSLGEQIDAALAQQGEQLFNTYCTACHRLDERFIGPALRDVTKRRGPVYIMNVMLNPNGMIQRHPVMKQLVQEYGTMMTDMALSEEQARAILEYLRQVAENQ,soluble
5,MEQQPQLNDHNKQEYPPMHTAEHLLNATMVKTFGCPRSRNAHIERKKSKCDYILPTCPTDAEIQAIEDKVNEVISQNLPVTVEFMTHEQAKGIVDLSKLPADASETLRIIRIGDYDACACIGLHVSNTSEVGTFKIISHDYNEERQTLRLRFKLIEKK,not soluble
6,ASFIEQQVGGSLNEASLAHHIEQVLATNGNLFIGNSLFVRLVDALCKLPEGYPVYTNRGASGIDGLIATMAGIAKASGQPTVGVVGDISALHDLNSISLLSKINHPSILFVINNSGGAIFDMLPVEARVKEQFYRLSHNYEFSQVAAMFGIEYIRPFTWADLKAKLKLAYGRKSATIVEIKVNDQDG,not soluble
7,MDITKADEPVIDEKDYPKPSDAELKAKLTPLQYSVTQNKHTERSFSNEYWDNFQPGIYVDITTGEPVFSSNDKFESGCGWPSFTKPIIKDVVHYETDNSFNMQRTEVLSRAGNAHLGHVFDDGPKDKGGLRYCINSASIKFIPLAEMEKAGYGYLIQSIKK,not soluble
8,ISNHPAPEYWCSIAYFEMDVQVGETFKVPSSCPIVTVDGYVDPSGGDRFCLGQLSNVHRTEAIERARLHIGKGVQLECKGEGDVWVRCLSDHAVFVQSYYLDREAGRAPGDAVHKIYPSAYIKVFDLRQCHRQMQQQAATAQAAAAAQAAAVAGNIPGPGSVGGIAPAISLSAAAGIGVDDLRRLCILRMSFVKGWGPDYPRQSIKETPCWIEIHLHRALQLLDEVLHTMPIADPQPLD,soluble
9,MSLNLWGDRVGYSKYKYEGLLNLCLEVFQRLGYTKEDSYTIGEVLLLADLFGIESHGVQRLTLYYKGIRNGSIKVKNHMNIVKESPVSVVIDGDGGMGQIISKKAMERAIDKAKKTGIGMAIVKNSNHFGIAGYYSRMAERKGLMGIAMTNTRAIVLPTYGREQMLGTNPISIAMPARPIPFLLDMATSVITRGKVEVYSKNNQKLNYGWAMDDEGRKTDNPDKVLKLANGNTGGLLPLGGDTEIFGGHKGYGISFAVEMFTSILSGGLTSDEIRGNNNTNGVCHAFAAIDYGLFDDKNAIEKRMSAYMQKIRNSKKAYGASRIYTHGEKELEAYEDRMENGIPINENTIVEIKEICDYVDIDINNYLKEGHHHHHH,soluble
10,MARATLACMEKITGAERSPEARDSAGAVGGADGREALVARVRAGERIKYLCFWGHRPLPDGRLGPSCLSQWWPSPFTVAGVEYATAEHWMMAGKARLFGDPEAERRVLAAAHPAGAKKAGRLVRGFDEAVWERERFRIVVEGSVHKFASDPALRVFLLATGERVLVEASPVDRVWGIGLAADDEAAVDPERWRGPNLLGFALMAARERLRAGELEHHHHHH,not soluble
11,MDIFYKKIKANVTPEVLAQLHSKKIILESTNQQQTKGRYSVVIFDIYGTLTLDNDVLSVSTLKESYQITERPYHYLTTKINEDYHNIQDEQLKSLPFISGYVGTCSFDLVRHEFPKLQSIQLEDHKQHDVRLYMVEQVYVFDHYKDELYIIATNQFSNSTKSDLENRVIKSIEDLTKIQPFMPTQDFDFKTKEIQSNISEERFIEMIQYFKEKITEGDMFQVVPSRIYKYAHHASQHLNQLSFQLYQNLKRQNPSPYMYYLNIDQPYIVGSSPESFVSVKDQIVTTNPIAGTIQRGETTQIDNENMKQLLNDPKECSEHRMLVDLGRNDIHRVSKIGTSKITKLMVIEKYEHVMHIVSEVTGKINQNLSPMTVIANLLPTGTVSGAPKLRAIERIYEQYPHKRGVYSGGVGYINCNHNLDFALAIRTMMIDEQYINVEAGCGVVYDSIPEKELNETKLKAKSLLEVSP,not soluble
12,MDLHSLCVDSHALRRDGMRFLHTADWQLGMTRHFLAGDAQPRYSAARRDAVAGLKALAADVGAEFVVVAGDVFEHNQLAPQIVGQSLEAMRVIGLPVYLLPGNHDPLDASSVYTSTLFRAERPDNVVVLDRAGVHEVRPGVQIVAAPWRSKAPTTDPVAEVLAGLPTDAAIRLLVAHGGVDALDPDHDKPSLIRLAALDDALTRQAIHYVALGDKHSLTQVGSSGRVWYSGAPEVTNFDDVEPDPGHVLVVDIDESDPRHPVTVDARRIGRWRFVTLHHQVDTSRDIADLDLNLDLMTDKDRTVVRLALTGSLTVTDRAALDTCLDKYARLFAWLGLWERHTDLAVIPVDAEFTDLGIGGFAAAAVDELVATARGGDDESAVDAQAALALLLRLADRGAALEHHHHHH,soluble
13,MATFESSLKPRLIYVFAIADARHEGSLKIGETTLNDDVGSASTEPNSEVLNKAAKARIDQYTKTAGIGYELLYTELTIYFSGGRVCSFNDKQVHSVLERSGVKRKSFAGATEWYSCDLATVKRAISAIKEGKDSLGASEVTLSDNPIILRPEQKEAIERTLKQFRKGNKMLWNAKMRFGKTLCALRVAKEMEAVRTIIITHRPVVDASWFEDFGKTFYDRPEWHYGSRSKGESFASLEKLASQGKKCVYFASMQDMRGSKDVGGKFDKNNEVFSTSWDLVIVDEAHEGTQTELGKAVLGQLMGKDTKALHLSGTPYNLFDQHKEEEVFTWDYVMEQQAKIDWEINHLGDTNPYASLPAIHIYTYDLGRLISEYSDEEKAFNFREFFRTREDGSFVHEGDIDRFLSLLCREDEEALYPYSNEHFRQIFRHTLWILPGVRAAKALSKKLSKHPIFGLFKVANVAGDGDDEEEESRDALELVNQAIGKDPDETYTITLSCGRLTTGVSIKP,not soluble
14,MGSDKIHHHHHHMNLKNTKAGFLLSAEHEKLPIAELNALIDIFSLEGNLNCFKNYVILDSSISEEIIKKMVKRGGYTNEGHVIFSESPIINQNVDETLENFFKSSETLDFPVERDETFAVRVLKLEKESPFNSMEIERKLGGIIKKKTSAQVSLKNPSKTVKVVISNDKMYTGIVIEKRDVEYFQNNRPHLRAYFHPGCIMPKLARCLVNLSRVKEGEIVLDPFCGTGGFLIEAGFLGCKLIGSDIDEQMVNGALLNLNTYDLSKQVISIKENDAKNVSKYLEALKIEKIDGIVTDPPYGISTSKKGDMLEIFEKIVDVLKDNDYLVFAAPNKMELDLNLVEFYEMRVHKSLTRYIHVYRKN,not soluble
15,MVVKFTKSEALHKEALEHIVGGVNSPSRSFKAVGGGAPIAMERGKGAYFWDVDGNKYIDYLAAYGPIITGHAHPHITKAITTAAENGVLYGTPTALEVKFAKMLKEAMPALDKVRFVNSGTEAVMTTIRVARAYTGRTKIMKFAGCYHGHSDLVLVAAGSGPSTLGTPDSAGVPQSIAQEVITVPFNNVETLKEALDKWGHEVAAILVEPIVGNFGIVEPKPGFLEKVNELVHEAGALVIYDEVITAFRFMYGGAQDLLGVTPDLTALGKVIGGGLPIGAYGGKKEIMEQVAPLGPAYQAGTMAGNPASMASGIACLEVLQQEGLYEKLDELGAMLEKGILEQAAKHNIDITLNRLKGALTVYFTTNTIEDYDAAQDTDGEMFGKFFKLMLQEGVNLAPSKYEAWFLTTEHTKEDIEYTIEAVGRAFAALADNK,not soluble
16,MGKEERAKWVNDEYAKAYEKMKSYGEQVKKADKPRVLYLKRSDLTLQGNDNFIKESMELAGADNIAAEAKSITMEEILKLDPEIILLSDFDKFLPQDLYENRIEGQDWSSVSAVVNKRVYKTPVGIYRWDAPGVETPLMMFWLGKMLQPEILEHHHHHH,not soluble
17,MINSSMQFDRILASQPGISLIAEKRITRSASYFPDHFPKRPVLPMTVLLECKLNLAKEFIARAKYDRAYRISELRKIKMNEFVHPGDVVVCQVKVKQQMDDELILSYRCEVDGKRVCVVDIVLIPKGKLEHHHHHH,not soluble
18,LGLERDVSRAVELLERLQRSGELPPQKLQALQRVLQSRFCSAIREVYEQLYDTLDIT,soluble
19,MVIHCKMFNNQRKTLAKEYHELYMNNNTETRKNKHLNERERYAIELYLKEKYTVTEIAKRLGRHRRTIEREITRGTIYLQNSDLTYRKEYCADVAQRRYVENGKNKGPRLKIGNDHELVRYIESKIINEKYSPDAVIGQIKAKGLKFKTSICTKTLYNYIDRGDVFLRLTNKYLPVKKDGKKRIYQRVKKIALKNLKGSSIEERPKEVNDRKEYGHWEMDCVVGRKNSAAVLLVLSERKTREEIILKLPDKTQESVIKAIDELERKYRRKFREKFKTITVDNGTEFLDYRGIEKSKTEPGKDRTKVYYAHPYSSWERGTNENINKLIRRFIPKGTDISKVSKAKIKSIERWINEYPRRMFGYRSAIEMAV,not soluble
20,MERVKSHFHNRKKVLLARIKDELKTIPSSNQMSTDEKMEELVRRRICIGEYDEQLARVCLDIEDEEKGRTEQFGNEQIQQPMTNLFTETSHQSLLSQLLTSSASQSKSEIPISMSSPMESASSKDSEPQAVISLPTLGATRAPLLSKLLSDPSTSKENGFLLRKEPVRLARAPSAIRNPNVSNYDRKRRAASPYEKSNRLSVLPSPQNQYLSHLIVDVSSPQELKRLLSVLIDHGFSRFQHIGSSDMVASSIRTGIPRAPRLDTVEYSNYEHEPETDEISRDGTPFWSTPIPPTNKELPVSPVSQLDMTNSIKSRVERVDVEVKLEPCNDEDDEFSEEVDEQTAELEEQLATEAIRTGLALFGKVSPSPKRMKSCGSSGSVCGDVVTAICEICGIGIRLNSGGSKWNFFEHVMMKHSTHKPFKCSQCPYQAVRKVRVKQHGQSQHNSEHEPVNMITPEVRKEWLDTMAKCFPNHQYGKEAKI,not soluble
21,PQFSLWKRPVVTAYIEGQPVEVLLDTGADDSIVAGIELGNNYSPKIVGGIGGFINTLEYKNVEIEVLNKKVRATIMTGDTPINIFGRNILTALGMSLNL,soluble
22,MSGVRAVRISIESACEKQVHGVGLDGTETYLPPLSMSQNLARLAQRIDFSQGSGSEEGEAAGTEGDAQDWPGAGSSADQDDEEGVVKFQPSLWPWDSVRNNLRSALTEMCVLYDVLSIVRDKKFMTLDPVSQDALPPKQVFVDFNLEHHHHHH,not soluble
23,MSLSNERSSEKTLQNLKTQLLEDSSFLSKLREKITPHIDDHDIQKIIRDYLLTNPEIIIEMQLILQDKLEKQSAQNTQKQASIINSLKKQIFQSPYDAVLGNPNGKRVLVDFFDYNCGYCKISYPYIENLIKEYPDLRVIIKDLPILGSDSMAAHIVAYAFRKQFPEKYPQFYKELLTHQSRANEIKAIKIAVSLGADEKKLRNAIKDSSLQNAFKKNIQIASRLNITGTPSYIIGDKLLIGAVSEEILKEAIENMQEGHHHHHH,soluble
